In publication PMC12055985:

Biological target: gH/gL expressed on the surface of CHO-K1 cells (UniProt P89445)
Assay: ELISA

Chain of gH/gL expressed on the surface of CHO-K1 cells (P89445 19-838, chain 1 of 2): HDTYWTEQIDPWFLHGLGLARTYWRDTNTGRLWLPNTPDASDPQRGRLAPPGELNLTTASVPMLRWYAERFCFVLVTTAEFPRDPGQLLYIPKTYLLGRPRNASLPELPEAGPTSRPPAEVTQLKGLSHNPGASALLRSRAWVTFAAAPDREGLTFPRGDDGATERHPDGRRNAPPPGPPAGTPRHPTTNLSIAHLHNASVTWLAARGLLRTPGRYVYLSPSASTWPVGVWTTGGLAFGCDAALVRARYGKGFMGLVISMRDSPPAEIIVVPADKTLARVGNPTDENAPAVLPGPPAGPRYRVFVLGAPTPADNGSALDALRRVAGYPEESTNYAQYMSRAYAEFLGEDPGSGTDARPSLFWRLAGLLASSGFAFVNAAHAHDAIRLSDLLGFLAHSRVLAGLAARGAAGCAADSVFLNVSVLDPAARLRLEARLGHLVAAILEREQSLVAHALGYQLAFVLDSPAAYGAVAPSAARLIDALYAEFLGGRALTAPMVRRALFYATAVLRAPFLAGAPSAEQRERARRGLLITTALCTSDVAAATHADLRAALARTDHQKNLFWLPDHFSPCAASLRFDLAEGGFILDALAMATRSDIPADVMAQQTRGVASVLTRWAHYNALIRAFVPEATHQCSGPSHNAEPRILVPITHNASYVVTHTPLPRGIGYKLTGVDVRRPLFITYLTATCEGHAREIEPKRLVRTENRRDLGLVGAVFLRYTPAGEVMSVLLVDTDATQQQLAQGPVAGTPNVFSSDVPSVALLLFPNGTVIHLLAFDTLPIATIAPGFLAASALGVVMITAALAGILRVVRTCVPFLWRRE
Chain of gH/gL expressed on the surface of CHO-K1 cells (P28278 17-224, chain 2 of 2, further chain): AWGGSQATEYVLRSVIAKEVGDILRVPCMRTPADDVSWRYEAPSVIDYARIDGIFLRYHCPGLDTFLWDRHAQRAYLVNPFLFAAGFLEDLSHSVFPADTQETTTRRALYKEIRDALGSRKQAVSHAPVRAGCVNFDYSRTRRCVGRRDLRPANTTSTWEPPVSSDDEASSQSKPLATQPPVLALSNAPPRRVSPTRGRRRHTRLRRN

HSV-2 gD (aa1-275) with C-terminal His tag (domain or fragment)
EC50: 1.28 µM
